According to US20260265374A1 (JW THERAPEUTICS R AND D SHANGHAI, published 2026):
Where a chain is given by its changes, count along the chain named.

T1: Soluble CD19 protein (amino acids 20-291) (UniProt P15391 20-291)
T1 construct: range 20-291; Analyte in SPR, 300 nM to 4.69 nM; also called cognate ligand CD19
T1 sequence (looked up): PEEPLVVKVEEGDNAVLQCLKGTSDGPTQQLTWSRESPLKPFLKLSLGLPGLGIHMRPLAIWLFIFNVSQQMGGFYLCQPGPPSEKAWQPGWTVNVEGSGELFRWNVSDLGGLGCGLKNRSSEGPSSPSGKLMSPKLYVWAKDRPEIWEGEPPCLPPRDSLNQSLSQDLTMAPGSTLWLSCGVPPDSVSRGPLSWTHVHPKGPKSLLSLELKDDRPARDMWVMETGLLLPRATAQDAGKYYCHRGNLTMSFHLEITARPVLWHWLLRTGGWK

B1: Antibody comprising scFv-2 fused with human IgG1 Fc fragment (Fc fusion)
chain: DIQMTQTTSSLSASLGDRVTISCRASQDISKYLNWYQQRPDGTVKLLIYHTSRLHSGVPSRFSGSGSGTDYSLTISNLEPEDIATYFCQQGNTLPYTFGGGTKLEITGSTSGSGKPGSGEGSTKGEVKLQESGPGLVAPSQSLSVTCTVSGVSLPDYGVSWIRQPPRKGLEWLGVIWGSETTYYNSALKSRLTIIKDNSKSQVFLKMNSLQTDDTAIYYCAKHYYYGGSYAMDYWGQGTSVTVSS
notes: scFv fused with human IgG1 Fc; not shown: human IgG1 Fc fragment
B2: Antibody comprising scFv-1 fused with human IgG1 Fc fragment (Fc fusion)
chain: B1 chain with G100S, K103R
notes: as for B1

Biological target: T1, Soluble CD19 protein (amino acids …)
Experiment: SPR (Biacore T200), antibody captured on Protein A chip, soluble CD19 as analyte
Description: All SPR experiments were performed on a Biacore T200 (PCytiva) with HBS-EP as running buffer. The antibodies were captured by Protein A chip (LOT #10309880, Cytiva). Soluble CD19 protein (amino acids 20-291) was used as the analyte at concentrations ranging from 300 nM to 4.69 nM through the flow cells for 120 seconds followed by dissociation analysis for 300 seconds. Association rates (Kon), dissociation rates (Koff) and the constant Ka (Kon/Koff) were fitted to the results.

Binder | binding result
B1 | binds
B2 | binds
